From patent US20140206011A1 come the findings set out here.

The target of one experiment is E-cadherin (human) (UniProt P12830). The experiment in a line: cell-based or functional assay.
In experiment [1] the target is FadA on wild-type Fusobacterium nucleatum 12230 (Fusobacterium nucleatum). The experiment is described as follows: cell-based or functional assay.

Chain of UniProt P12830 (P12830 155-882): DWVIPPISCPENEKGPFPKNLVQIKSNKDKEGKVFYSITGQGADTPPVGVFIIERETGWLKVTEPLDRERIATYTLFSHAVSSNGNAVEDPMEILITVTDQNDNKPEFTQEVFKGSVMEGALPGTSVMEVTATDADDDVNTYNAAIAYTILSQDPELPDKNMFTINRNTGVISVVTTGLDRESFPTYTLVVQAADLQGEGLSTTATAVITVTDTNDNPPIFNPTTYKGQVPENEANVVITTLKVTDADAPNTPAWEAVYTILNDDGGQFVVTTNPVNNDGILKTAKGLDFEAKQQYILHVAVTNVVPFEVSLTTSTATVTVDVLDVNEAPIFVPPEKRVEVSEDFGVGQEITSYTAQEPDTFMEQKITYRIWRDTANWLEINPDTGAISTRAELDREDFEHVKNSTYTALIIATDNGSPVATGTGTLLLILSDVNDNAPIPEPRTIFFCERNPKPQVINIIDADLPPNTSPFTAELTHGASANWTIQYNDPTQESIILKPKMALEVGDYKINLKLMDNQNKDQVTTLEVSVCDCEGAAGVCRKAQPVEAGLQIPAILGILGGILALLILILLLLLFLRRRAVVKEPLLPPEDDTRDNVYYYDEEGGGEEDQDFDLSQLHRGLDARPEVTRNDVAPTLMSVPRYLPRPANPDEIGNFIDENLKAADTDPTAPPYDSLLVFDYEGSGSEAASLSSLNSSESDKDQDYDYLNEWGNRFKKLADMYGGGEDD

In the experiment with E-cadherin (human), FadAc returned an HCT116 cell growth (cell proliferation assay) of 1 mg/mL and an HCT116 xenograft tumor growth in nude mice of 20%.
With “FadA on wild-type Fusobacterium nucleatum 12230”, in the experiment with E-cadherin (human), the attachment level of Fn to HCT116 (percent bacteria recovered relative to inoculum), FIG. 3C without inhibition came to 4.4%; the attachment level of Fn to HCT116 without inhibition, FIG. 4B amounted to 6.3%; the attachment level of Fn to HCT116 without inhibition, FIG. 4C was 5.9%; the invasion level of Fn into HCT116 (percent bacteria recovered relative to inoculum), FIG. 3C without inhibition was found to be 1.3%. In the experiment with E-cadherin (human), this substance showed an invasion level of Fn into HCT116 without inhibition, FIG. 4B of 1.6% and an invasion level of Fn into HCT116 without inhibition, FIG. 4C of 1.4%.
Take “GST-EC5 fusion protein (from UniProt P12830 594-697)”: the inhibition of Fn attachment and invasion of HCT116 in experiment [1] was found to be 0.1 µM.
